# Test: yeast display, Sf9 membrane polyspecificity reagent, FACS + sequencing; frameworks hold sequencing errors
# In short: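 Nanobodies came from a synthetic yeast display library in Saccharomyces cerevisiae BJ5465, induced with galactose for 36–48 hours and stained for 1 hour at 4 °C with 10% biotinylated, detergent-solubilized Sf9 membrane reagent. Cells were enriched on streptavidin microbeads and then FACS-sorted, with low and high (top ~1%) gates set on anti-HA fluorescence for expression and streptavidin fluorescence for reagent binding. Each polyreactivity label reflects the gate a clone came from. Genes were amplified by colony PCR, sequenced by MiSeq 2 × 250 and filtered by CDR length.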
row,Sequence,polyreactivity (PSR sort gate)
1,QVQLVESGGGLVQAGGSLRLSCAASGRTIYYYAMGWYRQAPGKERELVAAINYGSGGSTYYADSVKGRFTISRDNAKNTVYLQMNSLKPEDTAVYYCNARRQDWPRKAYGYWGQGTQVTVSS,high polyreactivity
2,QVQLVESGGGLVQAGGSLRLSCAASGRTIYYYAMGWYRQAPGKERELVAAITSGGSTYYADSVKGRFTISRDNEKNTVYLQMNSLKPEDTAVYYCAARPLEGWHYGSWGQGTQVTVSS,low polyreactivity
3,QVQLVESGGGLVQAGGSLRLSCAASGRTLAPYAMGWYRQAPGKERELVAISTIGGSTYYADSVKGRFTISRDNAKNTVFLQMNSLKPEDTAVYYCNADATDSYPEKDEHDSWGQGTQVTVSS,low polyreactivity
4,QVQLVESGGGLVQAGGSLRLSCAASGRTLARNAMGWDIQGPGKERELVASINGRTTRTYYADSVKGRFTISRDNAKNTVYLQMNSLKPEDTAVYYCAAERKNKYDYWGQGTQVTVSS,high polyreactivity
5,QVQLVESGGGLVQAGGSLRLSCAASGRTLASNAMGWYRQAPGKERELVAAINRGGSTYYADSVKGRFTISRDNAKNTVYLQMNSLKPEDTAVYSCAVDRYRYPFDYWGQGTQVTVSS,low polyreactivity
6,QVQLVESGGGLVQAGGSLRLSCAASGRTLFPNVMGWYRQAPRQERELFAAITTIGGSTYYADSVKGRITISRDNAKNTVFLQMNSLKPEDTEVYYCNARYRGRGLKFGYWGQGTQVTVSS,high polyreactivity
7,QVQLVESGGGLVQAGGSLRLSCAASGRTLFYYTMGWYRQAPGKERELVAAISSGDSTNYADSVKGRFTISRDNAKNTVYLQMNSLQPEDTAVYYCATQYLLDYKKTYRTYYSPYDYWGQGTQVTVSS,low polyreactivity
8,QVQLVESGGGLVQAGGSLRLSCAASGRTLGGNAMGWYRQAPGKERELVAAITNSASTYADSVKGRFTISRDNAKNSVYLQMNSLKPEDTAVYYCNAPVPSDQHGDYWGQGTQVTVSS,low polyreactivity
9,QVQLVESGGGLVQAGGSLRLSCAASGRTLGGYAMGWYRQAPGKERELVASITARGGSTYYADSVKGRFTISRDNAKNTVYLQMNSLKPEDTAVYYCNKRTRRTYDYWGQGTQVTVSS,high polyreactivity
10,QVQLVESGGGLVQAGGSLRLSCAASGRTLGGYAMGWYRQAPRKERELVAVITWNGGSTYADSVKGRFTISRDNAKNTVYLQMNSLKPVDTAVYYCAARQAYYAAFRTRYGYWGQGTQVTVSS,high polyreactivity
11,QVQLVESGGGLVQAGGSLRLSCAASGRTLGGYTMGWYRQAPGKERELVAAITTGGSTNYADSVKGRFTISRDNAKNTVYLQMNSLKPEDTAVYYCATELVFDKRYWYDYWGQGTQVTVSS,low polyreactivity
12,QVQLVESGGGLVQAGGSLRLSCAASGRTLGIYAMGWYRQAPGKERELVADISRDSSTYYADSVKGRFTISRDNAKNTVYLQKNSLKPEDTAVYYCNADQTPRDVTDWWYDYDYWGQGSQVTVSS,low polyreactivity
13,QVQLVESGGGLVQAGGSLRLSCAASGRTLGKNAMGWYRQAPGKEREFVAAISRSGSRTYYADSVKGRFTISRDNEKYTVYLQMNSLKPEDTAVYYCAADGSGHSQRYDYWGQGTQVTVSS,high polyreactivity
14,QVQLVESGGGLVQAGGSLRLSCAASGRTLGKYAMGWYRQAPGKERELVAAIRWTGGNTYYADSVKGRFTISRDNAKNTVYLQMNSLKPEDTAVYYCAAAYWNDWSQYDYWGQGTQVTVSS,high polyreactivity
15,QVQLVESGGGLVQAGGSLRLSCAASGRTLGRNAMGWYRHAPGKERELVARISYSGGRTYYADSVKGRFTISRDNAKNTVYLQMNSLKPEDTAVYYCATLGIVHQYDYWGQGTQVTVSS,low polyreactivity
16,QVQLVESGGGLVQAGGSLRLSCAASGRTLGTNAMGWYRQAPGKERELVAAITRNGGSTYYADSVKGRFTISRDNAKNTVYLQMNSLKPEDTAVYYCAARYFHSVGGWPVSYRYNYWGQGTQVTVSS,high polyreactivity
17,QVQLVESGGGLVQAGGSLRLSCAASGRTLGVNAMGWYRQAPGKERELVAAISTRGTTTNYADSVKGRFTISRDNAKNTVYLQMNSLKPEDTAVYYCATRTYRTYPRYDYWGQGTQVTVSS,high polyreactivity
18,QVQLVESGGGLVQAGGSLRLSCAASGRTLGYNAVGWYRQAPGKERELVAAINGGDSTYADSVKGRFTISRDNAKNTVYLQMNSLKPEDTAVYYCNALRGGPFRWHGYYYWGQGTQVTVSS,low polyreactivity
19,QVQLVESGGGLVQAGGSLRLSCAASGRTLHDYTMGWYRQAPGKERELVAGITSGGRTNYADSVKGRFTISRDNAKNTVYLQMNSLKPEDTAVYYCAAAWTWWRLYADDYWGQGTQVTVSS,high polyreactivity
20,QVQLVESGGGLVQAGGSLRLSCAASGRTLIHYAMGWYRQAPGKERELVATINIGGRTYADSVKGRFTISRDNAKNTVYLQMNSLKPEDTAVYYCAADHRYSARRSVPTLYDYWGQGTQVTVSS,low polyreactivity
21,QVQLVESGGGLVQAGGSLRLSCAASGRTLKYNAMGWYIQAPGKERELVAGISWSGTRTYYADSVKGRFTISRDIAKNTVYLQMNSLKPEETAVYYCAAYSYLYRSSGFRYNYWGQGTPVTVSS,high polyreactivity
22,QVQLVESGGGLVQAGGSLRLSCAASGRTLLQYTKGWYRQAPGKERELGAAISWSGGRTYYADSVKGRFTISRDNAKNTVYLQMNSLKPEDTAVYYCAARGLKSQYYGAKHEYGYWGLGTQVTVSS,high polyreactivity

row,Sequence,polyreactivity (PSR sort gate)
1,QVQLVESGGGLVQAGGSLRLSCAASGRTLNRNAMGWYRQAPGKERELVAAISRRGGSTNYADSVKGRFTISRDNAKNTVYLQMNSLKPEDTAVYYCARVTTVYDGRGFVDVKRGYWGQGTQVTVSS,high polyreactivity
2,QVQLVESGGGLVQAGGSLRLSCAASGRTLPEYVMGWYRQAPGKERELVAAITTAGSTNYADSVKGRFTISRDNAKNTVYLQMNSLKPEDTAVYYCNAYPASRGPGNPLDDYWGQGTQVTVSS,low polyreactivity
3,QVQLVESGGGLVQAGGSLRLSCAASGRTLPKYVMGWYRQAPGKERELVAAISSSGDSTYYADSVKGRFTISRDNAKNTVYLQMNSLKPEDTAVYYCGKYDLNTYGYWGQGTQVTVSS,low polyreactivity
4,QVQLVESGGGLVQAGGSLRLSCAASGRTLPSNTMGWYRQAPGTERELVAAISKNGGSTYYADSVKGRFTISRDNAMNTVYLQMNSLKPEDTAVYYCNARYLYGRYRSPLDDYWGQGTQVTVSS,high polyreactivity
5,QVQLVESGGGLVQAGGSLRLSCAASGRTLPYYMRWYRQAPGKERELVAAITNGDSTYYADSVKGRFTISRDNAQNTVYLQMNSLKPEDTAVYDCAARQKVPPQYWGQGTQVTVSS,high polyreactivity
6,QVQLVESGGGLVQAGGSLRLSCAASGRTLQGYAMGWYRQEPGKERELVAAISRGGGSTYADSVKGRFTISRDNAKNTVYLQMNSLKPEDTAVYYCNKKSYYRYYWGQGTQVTVSS,high polyreactivity
7,QVQLVESGGGLVQAGGSLRLSCAASGRTLQIYVMGWYRQAPGKERELVASITGRGGSTYYADSVKGRFTISRDTAKNTVYLQMNSLKPEDTAVYYFARRYYRLDYWGQGTQVTVSS,high polyreactivity
8,QVQLVESGGGLVQAGGSLRLSCAASGRTLRAYAMGWYRQAPGKERELVAAITWSGGSTYYADSVKGRFTISRDTAKNTVYLQMNSLKPEDTAVYYCNARSYPDLYDYWGQGTQVTVSS,low polyreactivity
9,QVQLVESGGGLVQAGGSLRLSCAASGRTLRGYAMGWYRQAPGKERELVARITGSGGSTYADSVKGRFTISRDNAKNTVYLQMNSLKPEDTAVYYCAAGYSIYYYYAYTISRVSYDYWGQGTQVTVSS,high polyreactivity
10,QVQLVESGGGLVQAGGSLRLSCAASGRTLRINAMGWYRQAPGKERELVAAISRSGGRTYYADSVKGRFTISRDNAKNTVYLQRNSLKPEDTAVYYCATGGVAYNYGWGQYYYWGQGTQVTVSS,high polyreactivity
11,QVQLVESGGGLVQAGGSLRLSCAASGRTLRIYAMGWYRPAPGNERELVAAITGSGGSTDYADSVKGRFTISRDNAKNTVYLQMNILKPEDTAVYYCNAGKTIDYRDGVGYDHWGQGTQVTVSS,low polyreactivity
12,QVQLVESGGGLVQAGGSLRLSCAASGRTLRLYAMGWYRQAPGKERELVAAISSRGRTYYADSVKGRFTISRDNAKNTVYLQMNSLKPEDTAVYYCAVVVYQGFRSKYYYWGQGTQVTVSS,high polyreactivity
13,QVQLVESGGGLVQAGGSLRLSCAASGRTLRRYAMGWYRQAPGKERELVADISWRGTSTNYADSVKGRFTISRDNAKNTVYLQMNSLKPEDTAVYYCAAKQTYTRLHYLGPSVWDNYDYWGQGTQVTVSS,high polyreactivity
14,QVQLVESGGGLVQAGGSLRLSCAASGRTLRYYAMGWYRQAPGKERELVATISRAGRTNYADSVKGRFTISRDNAKNTVYLQMNSLKPEDTAVYYCAAGRVVYSYSDNYDYWGQGTQVTVSS,high polyreactivity
15,QVQLVESGGGLVQAGGSLRLSCAASGRTLRYYAMGWYRQAPGKERELVATITGSGGSTYYADSVKGRFTISRDNAKNTVYLQMNSLKPEDTAVYYCNARKVRYPYRWYDYWGQGTQVTVSS,high polyreactivity
16,QVQLVESGGGLVQAGGSLRLSCAASGRTLSANAMGWYRQAPGKERELVATISTRGGRTYYADSVKGRFTISRDNAKNTVYLQMNSLKPEDTAVYYCAVTIRAKYTLKEDYWGQGTQVNVSS,low polyreactivity
17,QVQLVESGGGLVQAGGSLRLSCAASGRTLSFYAMGWYRQAPGKERELVAAISRRGGSTYYADSVKGRFTISRDNAKNTVYLQMNSLKPEDTAVYYCAARRWYPYKNYDYWGQGTQVTVSS,high polyreactivity
18,QVQLVESGGGLVQAGGSLRLSCAASGRTLSGNAMGWYRQAPGKERELVASISTSTDGTYYADSVKGRFTISRDNAKNTVYLQMNSLKPEDTAVYYCTTTTYHWYYYRWEIFDYWGQGTQVTVSS,low polyreactivity
19,QVQLVESGGGLVQAGGSLRLSCAASGRTLSVYAMGWYRQAPGKERELVAAITKSGGSTYYADSVKGRFTISRDNAKNTVYLQMNSLKPEDTAVYYCAAEGDWRGYALYNYWGQGTQVTVSS,low polyreactivity
20,QVQLVESGGGLVQAGGSLRLSCAASGRTLSWYAMGWYRQAPGKEREFVAAITSSGASTYYADSVKGRFTISRDNAKNTVYLQMNSLKPEDTAVYYCAAEAVYVSSWYDEYYYFRYDYWGQGTQVTVSS,high polyreactivity
21,QVQLVESGGGLVQAGGSLRLSCAASGRTLSYYAMGWYRQAPGKERELVAAIRHSAGSTYYADSVKGRFTISRDTAKNTVYLQMNSLKPEDTAVYYCAKKYYGHRYPSIYDYWGQGTQVTVSS,high polyreactivity

# Reference: the nanobody polyreactivity screen of Harvey et al. (2022)
